Source: US11912763 (dated 2024)
“And” between values parts separate entries of the source, which are not always exact repeats. Equal entries are not always repeated. Where two headings read alike, the source gives them in different places. One block for each binder: values may come before it.

Tests used:
human CLDN18.2 [1] = biological target: T1, human CLDN18.2 (human, UniProt P56856); test: ELISA
mouse CLDN18.2 [2] = biological target: T2, mouse CLDN18.2 (mouse, UniProt P56857); test: ELISA
T2 chain: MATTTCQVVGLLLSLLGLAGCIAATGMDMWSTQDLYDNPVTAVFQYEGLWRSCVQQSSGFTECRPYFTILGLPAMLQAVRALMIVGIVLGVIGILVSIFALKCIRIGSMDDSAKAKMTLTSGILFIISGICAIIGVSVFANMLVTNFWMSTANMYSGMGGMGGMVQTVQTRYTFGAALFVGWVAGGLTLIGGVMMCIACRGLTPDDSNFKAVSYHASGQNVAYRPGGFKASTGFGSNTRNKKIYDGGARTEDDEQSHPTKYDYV

human CLDN18.2 [3] = biological target: T1, human CLDN18.2; test: ELISA; remark: listed apart in the source
human CLDN18.2 [4] = biological target: T1, human CLDN18.2; test: ELISA; remark: listed apart in the source
human CLDN18.2 [5] = biological target: T1, human CLDN18.2; test: ELISA; remark: listed apart in the source
human CLDN18.2 [6] = biological target: T1, human CLDN18.2; test: ELISA; remark: listed apart in the source
human CLDN18.2 [7] = biological target: T1, human CLDN18.2; test: ELISA; remark: listed apart in the source
human CLDN18.2 [8] = biological target: T1, human CLDN18.2; test: ELISA; remark: listed apart in the source
human CLDN18.2 [9] = biological target: T1, human CLDN18.2; test: ELISA; remark: listed apart in the source
human CLDN18.1 [10] = biological target: T3, human CLDN18.1 (human, UniProt P56856); test: ELISA
T3 chain: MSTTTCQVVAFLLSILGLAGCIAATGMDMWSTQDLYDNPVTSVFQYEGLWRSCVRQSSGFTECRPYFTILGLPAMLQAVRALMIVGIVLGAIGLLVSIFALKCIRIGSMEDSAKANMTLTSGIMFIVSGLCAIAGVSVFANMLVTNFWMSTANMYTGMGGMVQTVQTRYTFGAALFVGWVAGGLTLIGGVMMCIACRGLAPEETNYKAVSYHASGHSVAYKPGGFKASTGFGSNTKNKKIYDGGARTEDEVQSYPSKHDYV

human CLDN18.2 [11] = biological target: T1, human CLDN18.2; test: ELISA; remark: listed apart in the source
human CLDN18.2 [12] = biological target: T1, human CLDN18.2; test: KinExA
human CLDN18.2 [13] = biological target: T1, human CLDN18.2; test: ELISA; remark: listed apart in the source
human CLDN18.2 [14] = biological target: T1, human CLDN18.2; test: ELISA; remark: listed apart in the source
mouse CLDN18.2 [15] = biological target: T2, mouse CLDN18.2; test: ELISA
human CLDN18.1 [16] = biological target: T3, human CLDN18.1; test: ELISA
human CLDN18.2 [17] = biological target: T1, human CLDN18.2; test: ELISA, serum 0 h
human CLDN18.2 [18] = biological target: T1, human CLDN18.2; test: ELISA, serum 72 h
human CLDN18.2 [19] = biological target: T1, human CLDN18.2; test: ELISA, serum 24 h
human CLDN18.2 [20] = biological target: T1, human CLDN18.2; test: ELISA, after 14 days at 37C

B1: Ab10 (antibody)
chain 1: QVQLVQSGAEVKKPGSSVKVSCKASGYAFSNYLIEWVKQAPGQGLEWIGLINPGSGGTNYNEKFKGKATITADKSTSTAYMELSSLRSEDTAVYYCARVYYGNSFAYWGQGTLVTVSS
chain 2: DIVMTQSPDSLAVSLGERATISCKSSQSLLNSGNQKNYLTWYQQKPGQPPKLLIYWASTRESGVPDRFSGSGSGTDFTLTISSLQAEDVAVYYCQNDYFYPFTFGQGTKLEIK
EC50 (human CLDN18.2 [1]): 0.69 nM
EC50 (mouse CLDN18.2 [2]): 0.371 nM
EC50 (human CLDN18.2 [3]): 0.36 nM and 0.69 nM
EC50 (human CLDN18.2 [4]): 0.208 nM
EC50 (human CLDN18.2 [5]): 0.2 nM
EC50 (human CLDN18.2 [6]): 0.151 nM
EC50 (human CLDN18.2 [7]): 0.42 nM
EC50 (human CLDN18.2 [8]): 0.164 nM
EC50 (human CLDN18.2 [9]): 0.38 nM
binding result (human CLDN18.1 [10]): no binding
EC50 (human CLDN18.2 [11]): 0.51 nM
Kd (human CLDN18.2 [12]): 0.0133 nM
EC50 (human CLDN18.2 [13]): 0.117 nM
EC50 (human CLDN18.2 [14]): 0.157 nM

B3: Ab15 (antibody, V domains shown)
VH: QVQLVQSGAEVKKPGSSVKVSCKASGYAFSNYLIEWVKQAPGQGLEWIGLINPGSGGTNYNEKFKGKATITADKSTSTAYMELSSLRSEDTAVYYCARVYYGNSFAYWGQGTLVTVSS
VL: DIVMTQSPDSLAVSLGERATINCKSSQSLLNSGNNKNYLAWYQQKPGQPPKLLIYWASTRESGVPDRFSGSGSGTDFTLTISSLQAEDVAVYYCQNDYFYPFTFGQGTKLEIKR
EC50 (human CLDN18.2 [5]): 0.219 nM
binding result (human CLDN18.1 [16]): no binding

B4: LB155 CLDN18.2 arm (antibody)
chain 1: QVQLVQSGAEVKKPGSSVKVSCKASGYAFSNYLIEWVKQAPGQGLEWIGLINPGSGGTNYNEKFKGKATITADKSTSTAYMELSSLRSEDTAVYYCARVYYGNSFAYWGQGTLVTVSS
chain 2: DIVMTQSPDSLAVSLGERATISCKSSQSLLNSGNQKNYLTWYQQKPGQPPKLLIYWASTRESGVPDRFSGSGSGTDFTLTISSLQAEDVAVYYCQNDYFYPFTFGQGTKLEIK
EC50 (human CLDN18.2 [3]): 0.59 nM

B6: ADC2 (antibody)
chain 1: QVQLVQSGAEVKKPGSSVKVSCKASGYAFSNYLIEWVKQAPGQGLEWIGLINPGSGGTNYNEKFKGKATITADKSTSTAYMELSSLRSEDTAVYYCARVYYGNSFAYWGQGTLVTVSS
chain 2: DIVMTQSPDSLAVSLGERATISCKSSQSLLNSGNQKNYLTWYQQKPGQPPKLLIYWASTRESGVPDRFSGSGSGTDFTLTISSLQAEDVAVYYCQNDYFYPFTFGQGTKLEIK
modifications: Ab10 MC-VC-PAB-MMAF conjugate
EC50 (human CLDN18.2 [8]): 0.31 nM

B10: ADC1 (antibody)
chain 1: QVQLVQSGAEVKKPGSSVKVSCKASGYAFSNYLIEWVKQAPGQGLEWIGLINPGSGGTNYNEKFKGKATITADKSTSTAYMELSSLRSEDTAVYYCARVYYGNSFAYWGQGTLVTVSS
chain 2: DIVMTQSPDSLAVSLGERATISCKSSQSLLNSGNQKNYLTWYQQKPGQPPKLLIYWASTRESGVPDRFSGSGSGTDFTLTISSLQAEDVAVYYCQNDYFYPFTFGQGTKLEIK
modifications: Ab10 SMCC-DM1 conjugate
EC50 (human CLDN18.2 [8]): 0.344 nM

B12: Ab6 (antibody, V domains shown)
VH: QVQLVQSGAEVKKPGSSVKVSCKASGYAFSNYLIEWVKQAPGQGLEWIGLINPGSGGTNYNEKFKGKATITADKSTSTAYMELSSLRSEDTAVYYCARVYYGNSFAYWGQGTLVTVSS
VL: DIVMTQSPDSLAVSLGERATISCKSSQSLLNSGNNKNYLAWYQQKPGQPPKLLIYWASTRESGVPDRFSGSGSGTDFTLTISSLQAEDVAVYYCQNDYFYPFTFGQGTKLEIK
EC50 (mouse CLDN18.2 [2]): 0.594 nM
EC50 (human CLDN18.2 [4]): 0.22 nM
EC50 (human CLDN18.2 [5]): 0.222 nM
binding result (human CLDN18.1 [16]): no binding

B13: Ab36 (antibody, V domains shown)
VH: QVQLVQSGAEVKKPGSSVKVSCKASGYAFSNYLIEWVKQAPGQGLEWIGLINPGSGGTNYNEKFKGKATITADKSTSTAYMELSSLRSEDTAVYYCARVYYGNTFAYWGQGTLVTVSS
VL: DIVMTQSPDSLAVSLGERATISCKSSQSLLNTGNNKNYLAWYQQKPGQPPKLLIYWASTRESGVPDRFSGSGSGTDFTLTISSLQAEDVAVYYCQNDYFYPFTFGQGTKLEIK
EC50 (mouse CLDN18.2 [2]): 0.518 nM
EC50 (human CLDN18.2 [4]): 0.211 nM

Further lines, results first:

binding result (mouse CLDN18.2 [15]): no binding
EC50 (human CLDN18.2 [4]): 62.1 nM
B2: Ab35 (antibody, V domains shown)
VH: QVQLVQSGAEVKKPGSSVKVSCKASGYAFSNYLIEWVKQAPGQGLEWIGLINPGSGGTNYNEKFKGKATITADKSTSTAYMELSSLRSEDTAVYYCARVYYGNTFAYWGQGTLVTVSS
VL: DIVMTQSPDSLAVSLGERATISCKSSQSLLNTGNQKNYLTWYQQKPGQPPKLLIYWASTRESGVPDRFSGSGSGTDFTLTISSLQAEDVAVYYCQNDYFYPFTFGQGTKLEIK

binding result (human CLDN18.1 [10]): no binding
EC50 (human CLDN18.2 [13]): 0.339 nM
B5: Ab9 (antibody, V domains shown)
VH: QVQLVQSGAEVKKPGSSVKVSCKASGYAFSNYLIEWVKQAPGQGLEWIGLINPGSGGTNYNEKFKGKATLTADKSTSTAYMELSSLRSEDTAVYFCARVYYGNSFAYWGQGTLVTVSS
VL: DIVMTQSPDSLAVSLGERATISCKSSQSLLNSGNQKNYLTWYQQKPGQPPKLLIYWASTRESGVPDRFSGSGSGTHFTLTISSLQAEDVAVYYCQNDYFYPFTFGQGTKLEIKR

EC50 (human CLDN18.2 [17]): 0.357 nM
EC50 (human CLDN18.2 [9]): 0.74 nM
EC50 (human CLDN18.2 [18]): 1.2 nM
EC50 (human CLDN18.2 [19]): 0.535 nM
B7: LB432 CLDN18.2 arm (antibody)
chain 1: QVQLVQSGAEVKKPGSSVKVSCKASGYAFSNYLIEWVKQAPGQGLEWIGLINPGSGGTNYNEKFKGKATITADKSTSTAYMELSSLRSEDTAVYYCARVYYGNSFAYWGQGTLVTVSS
chain 2: DIVMTQSPDSLAVSLGERATISCKSSQSLLNSGNQKNYLTWYQQKPGQPPKLLIYWASTRESGVPDRFSGSGSGTDFTLTISSLQAEDVAVYYCQNDYFYPFTFGQGTKLEIK

EC50 (human CLDN18.2 [3]): 0.5 nM
B8: LB195 CLDN18.2 arm (antibody)
chain 1: QVQLVQSGAEVKKPGSSVKVSCKASGYAFSNYLIEWVKQAPGQGLEWIGLINPGSGGTNYNEKFKGKATITADKSTSTAYMELSSLRSEDTAVYYCARVYYGNSFAYWGQGTLVTVSS
chain 2: DIVMTQSPDSLAVSLGERATISCKSSQSLLNSGNQKNYLTWYQQKPGQPPKLLIYWASTRESGVPDRFSGSGSGTDFTLTISSLQAEDVAVYYCQNDYFYPFTFGQGTKLEIK

binding result (human CLDN18.1 [10]): no binding
EC50 (human CLDN18.2 [13]): 0.282 nM
B9: Ab7 (antibody, V domains shown)
VH: QVQLVQSGAEVKKPGSSVKVSCKASGYAFSNYLIEWVKQAPGQGLEWIGLINPGSGGTNYNEKFKGKATITADKSTSTAYMELSSLRSEDTAVYYCARVYYGNSFAYWGQGTLVTVSS
VL: DIVMTQSPDSLAVSLGERATISCKSSQSLLNSGNQKNYLTWYQQKPGQPPKLLIYWASTRESGVPDRFSGSGSGTHFTLTISSLQAEDVAVYYCQNDYFYPFTFGQGTKLEIKR

EC50 (human CLDN18.2 [20]): 10.1 nM
EC50 (human CLDN18.2 [6]): 0.366 nM
EC50 (human CLDN18.2 [14]): 0.99 nM
B11: LB321 CLDN18.2 arm (antibody)
chain 1: QVQLVQSGAEVKKPGSSVKVSCKASGYAFSNYLIEWVKQAPGQGLEWIGLINPGSGGTNYNEKFKGKATITADKSTSTAYMELSSLRSEDTAVYYCARVYYGNSFAYWGQGTLVTVSS
chain 2: DIVMTQSPDSLAVSLGERATISCKSSQSLLNSGNQKNYLTWYQQKPGQPPKLLIYWASTRESGVPDRFSGSGSGTDFTLTISSLQAEDVAVYYCQNDYFYPFTFGQGTKLEIK

binding result (human CLDN18.1 [10]): no binding
EC50 (human CLDN18.2 [13]): 0.227 nM
B14: Ab8 (antibody, V domains shown)
VH: QVQLVQSGAEVKKPGSSVKVSCKASGYAFSNYLIEWVKQAPGQGLEWIGLINPGSGGTNYNEKFKGKATLTADKSTSTAYMELSSLRSEDTAVYFCARVYYGNSFAYWGQGTLVTVSS
VL: DIVMTQSPDSLAVSLGERATISCKSSQSLLNSGNQKNYLTWYQQKPGQPPKLLIYWASTRESGVPDRFSGSGSGTDFTLTISSLQAEDVAVYYCQNDYFYPFTFGQGTKLEIKR
